Test [1] addresses Human FcγRIIIA 158F (human) (UniProt P08637). The test is described as follows: SPR (T100), biotinylated receptor on streptavidin chip, equilibrium binding, 1:1 model.
Test [2] deals with Human FcγRIIIA 158V (human) (UniProt P08637). The description is as above.
Chain of Human FcγRIIIA 158V (human) (P08637 other isoform, or with tags, fused parts or gaps): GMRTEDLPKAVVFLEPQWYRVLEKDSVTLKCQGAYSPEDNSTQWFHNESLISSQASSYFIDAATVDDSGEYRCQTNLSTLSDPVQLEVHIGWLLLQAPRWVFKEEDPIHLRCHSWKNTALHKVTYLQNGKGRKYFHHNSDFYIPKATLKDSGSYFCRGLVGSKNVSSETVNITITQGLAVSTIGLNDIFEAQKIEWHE

Chain of Human FcγRIIIA 158F (human) (P08637 17-199 limits assumed): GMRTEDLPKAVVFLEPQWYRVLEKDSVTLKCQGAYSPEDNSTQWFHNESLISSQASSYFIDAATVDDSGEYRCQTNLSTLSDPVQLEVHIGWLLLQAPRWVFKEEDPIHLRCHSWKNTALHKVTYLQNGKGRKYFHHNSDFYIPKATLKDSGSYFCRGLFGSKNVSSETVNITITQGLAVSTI

On to HCD122 (antibody), for which the Ka in test [1] amounted to 699000 M⁻¹; in test [2], 1.72e+06 M⁻¹.

(Values after patent publication US20190153111A1.)
